Tests used:
[1] = target: PD-1-Fc fusion protein (extracellular region of human PD-1 fused to human Fc) (human); test: SPR (Biacore), PD-1-Fc immobilized, antibody as analyte
[2] = target: PD-1-Fc fusion protein (extracellular region of human PD-1 fused to human Fc) (human); test: ELISA on coated PD-1-Fc, HRP anti-human kappa

Sequence of PD-1-Fc fusion protein (extracellular region of human PD-1 fused to human Fc) (human) (chain, as listed by the source limits assumed): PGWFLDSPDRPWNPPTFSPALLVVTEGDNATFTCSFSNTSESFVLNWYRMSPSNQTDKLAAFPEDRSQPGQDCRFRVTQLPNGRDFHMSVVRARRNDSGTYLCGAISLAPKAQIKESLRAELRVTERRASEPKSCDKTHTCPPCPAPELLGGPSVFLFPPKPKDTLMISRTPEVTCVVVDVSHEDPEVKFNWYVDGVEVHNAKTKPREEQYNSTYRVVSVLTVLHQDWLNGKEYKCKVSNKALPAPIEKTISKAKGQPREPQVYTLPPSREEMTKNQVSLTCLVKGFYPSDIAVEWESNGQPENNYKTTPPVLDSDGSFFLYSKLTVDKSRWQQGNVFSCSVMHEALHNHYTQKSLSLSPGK

Nivolumab (antibody)
Kd [1]: 21.2 pM
EC50 (read off the curve) [2]: 0.04 µg/mL

Reference: patent US20180282412A1
